Test results from the supplement of paper PMC10065799, “High-throughput profiling of sequence recognition by tyrosine kinases and SH2 domains using bacterial peptide display” (eLife, 2023).
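Note: 11-residue human phosphosite peptides and single-mutation variants displayed on the E. coli surface, counted by deep sequencing, each peptide's frequency after selection divided by its frequency in the unselected input library; frequency after pTyr selection over input frequency; kinase dosed for 20-30% of maximal phosphorylation in three min.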

These sequences were tested against MERTK (UniProt Q12866) (assay: phosphorylation enrichment, bacterial display (enrichment ratio); higher = better substrate or ligand; peptides without Tyr show the background).
MERTK, sequence (Q12866 whole entry, looked up): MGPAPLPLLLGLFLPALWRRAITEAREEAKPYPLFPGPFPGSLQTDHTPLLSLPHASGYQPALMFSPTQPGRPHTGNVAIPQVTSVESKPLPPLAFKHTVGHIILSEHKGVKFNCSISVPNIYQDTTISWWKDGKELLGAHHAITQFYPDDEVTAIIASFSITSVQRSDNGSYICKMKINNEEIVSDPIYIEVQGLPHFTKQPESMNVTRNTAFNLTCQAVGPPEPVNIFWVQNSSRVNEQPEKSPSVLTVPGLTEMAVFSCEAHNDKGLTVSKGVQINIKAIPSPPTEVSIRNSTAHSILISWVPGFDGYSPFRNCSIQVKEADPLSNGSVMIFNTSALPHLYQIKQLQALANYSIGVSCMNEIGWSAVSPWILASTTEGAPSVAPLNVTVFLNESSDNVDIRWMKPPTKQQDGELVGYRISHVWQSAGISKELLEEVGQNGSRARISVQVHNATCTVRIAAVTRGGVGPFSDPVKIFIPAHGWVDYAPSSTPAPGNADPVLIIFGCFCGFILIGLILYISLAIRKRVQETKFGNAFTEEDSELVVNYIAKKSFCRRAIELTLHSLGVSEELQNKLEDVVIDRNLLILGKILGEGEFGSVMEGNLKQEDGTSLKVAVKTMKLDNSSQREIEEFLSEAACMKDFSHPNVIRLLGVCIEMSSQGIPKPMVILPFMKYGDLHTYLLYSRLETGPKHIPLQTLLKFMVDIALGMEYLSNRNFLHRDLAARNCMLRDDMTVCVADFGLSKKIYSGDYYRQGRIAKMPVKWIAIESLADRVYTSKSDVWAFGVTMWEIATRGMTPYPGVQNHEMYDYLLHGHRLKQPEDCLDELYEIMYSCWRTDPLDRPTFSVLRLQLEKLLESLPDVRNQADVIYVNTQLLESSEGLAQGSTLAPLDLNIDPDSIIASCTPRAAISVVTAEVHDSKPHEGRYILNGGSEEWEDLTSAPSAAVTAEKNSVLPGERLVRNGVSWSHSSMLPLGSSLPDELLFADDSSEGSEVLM
Sequence GLCSFYETSKM [MAGED2_Y449_R446C_YF] has a phosphorylation enrichment of 0.706.
DLFRLYVCVKE [ARID1B_Y1091] gave a phosphorylation enrichment of 0.364.
FSSLGYPPPEG [ZSWIM4_Y87_YF] was tested, and the phosphorylation enrichment was 0.401.
WVYNHYRCIIW [BRCA2_Y2624_W2626C] gave a phosphorylation enrichment of 0.659.
Sequence REQREYLDQLN [CCDC88B_Y1277] has a phosphorylation enrichment of 0.433.
MAALSYVSEIG [BPIFB2_Y36_K31M] gave a phosphorylation enrichment of 0.371.
For TRDVNYGWIIR [MT-CYB_Y75], the phosphorylation enrichment was 0.756.
GFDHSYFFIAT [ESD_Y262_YF] was tested, and the phosphorylation enrichment was 0.67.
With PQGVRYIYTID [DCX_Y103] the phosphorylation enrichment was 0.856.
HSLRDYKEALM [ADA2_Y337_H335R] gave a phosphorylation enrichment of 0.649.
With GDFFRYLAEVA [YWHAG_Y133_YF] the phosphorylation enrichment was 0.429.
For IFRASYVPFAA [RBM47_Y541_G538R_YF], the phosphorylation enrichment was 0.389.
Sequence ITRDIYETDFF [INSR_Y1185_M1180I_YF] has a phosphorylation enrichment of 1.26.
Sequence ITLPIYTKGSE [ANK2_Y1455_E1458G] has a phosphorylation enrichment of 0.481.
For FLAVGYHKTHI [IDS_Y225_P228T], the phosphorylation enrichment was 0.441.
RVVVPYEPPEV [TP53_Y220_S215R] showed a phosphorylation enrichment of 0.468.
Work on ARSMEYLAEQK [MST1R_Y1198] yielded a phosphorylation enrichment of 0.548.
Work on RRFSSYSQMEN [PKP1_Y120] yielded a phosphorylation enrichment of 1.06.
Work on EKKDIYKAGEQ [CFH_Y1008_V1007I] yielded a phosphorylation enrichment of 0.362.
Sequence DNACQYMLTDR [MYH7_Y164_Y162C] has a phosphorylation enrichment of 0.532.
For SGGLDYGMVGG [TNRC6B_Y1382_M1380L], the phosphorylation enrichment was 0.43.
In the case of LNYNEYFRDLN [HPRT1_Y198_D194N], the phosphorylation enrichment is reported as 0.559.
Sequence QRKRAYVEIEF [MAK16_Y282_YF] has a phosphorylation enrichment of 0.643.
Work on KRLWDYGMSSS [F8_Y1728_E1723K] yielded a phosphorylation enrichment of 0.359.
Sequence VAFLFYKSIGP [ADGRL4_Y302_V300L_YF] has a phosphorylation enrichment of 0.523.
For TQNGVYSAANY [DDX5_Y535], the phosphorylation enrichment was 4.8.
In the case of FFLGAYDRFLP [SLC22A5_Y486_V481F_YF], the phosphorylation enrichment is reported as 3.38.
Sequence RLGNQHVNVMN [SLC3A1_Y461_Y461H] has a phosphorylation enrichment of 0.53.
Sequence INMKKYCKKDF [NTN1_Y490_YF] has a phosphorylation enrichment of 0.659.
Sequence MSRYIYSTDYY [NTRK1_Y676_D674Y] has a phosphorylation enrichment of 12.3.
Work on KLPFLYDDPFS [GPX2_Y127_P126L_YF] yielded a phosphorylation enrichment of 2.66.
With KLPFPYDDPFS [GPX2_Y127_YF] the phosphorylation enrichment was 0.525.
SQSPHYFRSGR [GPATCH8_Y1038] gave a phosphorylation enrichment of 0.502.

Each sequence was assayed against EPHB2 (UniProt P29323) in the same assay as above.
EPHB2, sequence (P29323 whole entry, looked up): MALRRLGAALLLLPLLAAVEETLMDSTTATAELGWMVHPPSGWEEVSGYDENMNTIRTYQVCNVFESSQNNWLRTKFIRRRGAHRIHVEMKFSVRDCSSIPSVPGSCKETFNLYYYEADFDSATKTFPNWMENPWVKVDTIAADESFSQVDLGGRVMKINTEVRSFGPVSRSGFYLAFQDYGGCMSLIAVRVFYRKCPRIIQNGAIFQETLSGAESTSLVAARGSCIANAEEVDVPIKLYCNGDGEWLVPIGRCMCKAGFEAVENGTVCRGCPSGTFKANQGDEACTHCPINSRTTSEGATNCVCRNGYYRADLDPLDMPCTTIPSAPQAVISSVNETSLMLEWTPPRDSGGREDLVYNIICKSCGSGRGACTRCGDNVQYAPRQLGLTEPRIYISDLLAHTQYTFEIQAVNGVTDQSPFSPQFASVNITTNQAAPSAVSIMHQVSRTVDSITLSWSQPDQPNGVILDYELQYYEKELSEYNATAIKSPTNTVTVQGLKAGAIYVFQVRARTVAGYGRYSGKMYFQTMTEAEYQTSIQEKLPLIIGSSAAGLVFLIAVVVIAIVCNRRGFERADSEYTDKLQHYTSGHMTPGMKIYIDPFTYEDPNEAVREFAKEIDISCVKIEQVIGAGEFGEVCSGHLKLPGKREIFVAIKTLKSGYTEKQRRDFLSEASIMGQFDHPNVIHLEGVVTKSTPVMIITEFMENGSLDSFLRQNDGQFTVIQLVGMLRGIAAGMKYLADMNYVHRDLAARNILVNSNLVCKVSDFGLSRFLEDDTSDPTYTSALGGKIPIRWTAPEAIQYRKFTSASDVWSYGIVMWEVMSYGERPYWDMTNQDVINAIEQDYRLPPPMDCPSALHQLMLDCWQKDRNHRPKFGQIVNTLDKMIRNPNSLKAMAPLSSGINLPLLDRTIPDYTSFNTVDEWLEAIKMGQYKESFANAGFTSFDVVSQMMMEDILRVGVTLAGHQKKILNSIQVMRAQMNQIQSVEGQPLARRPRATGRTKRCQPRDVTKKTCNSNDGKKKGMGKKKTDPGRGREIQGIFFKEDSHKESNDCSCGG
Work on GLCSFYETSKM [MAGED2_Y449_R446C_YF] yielded a phosphorylation enrichment of 0.903.
In the case of DLFRLYVCVKE [ARID1B_Y1091], the phosphorylation enrichment is reported as 0.67.
FSSLGYPPPEG [ZSWIM4_Y87_YF] gave a phosphorylation enrichment of 0.481.
In the case of WVYNHYRCIIW [BRCA2_Y2624_W2626C], the phosphorylation enrichment is reported as 0.645.
For REQREYLDQLN [CCDC88B_Y1277], the phosphorylation enrichment was 0.663.
For MAALSYVSEIG [BPIFB2_Y36_K31M], the phosphorylation enrichment was 0.521.
For TRDVNYGWIIR [MT-CYB_Y75], the phosphorylation enrichment was 0.91.
GFDHSYFFIAT [ESD_Y262_YF] was tested, and the phosphorylation enrichment was 0.603.
PQGVRYIYTID [DCX_Y103] was tested, and the phosphorylation enrichment was 0.951.
In the case of HSLRDYKEALM [ADA2_Y337_H335R], the phosphorylation enrichment is reported as 0.45.
For GDFFRYLAEVA [YWHAG_Y133_YF], the phosphorylation enrichment was 0.51.
For IFRASYVPFAA [RBM47_Y541_G538R_YF], the phosphorylation enrichment was 0.548.
ITRDIYETDFF [INSR_Y1185_M1180I_YF] was tested, and the phosphorylation enrichment was 0.711.
ITLPIYTKGSE [ANK2_Y1455_E1458G] was tested, and the phosphorylation enrichment was 0.478.
In the case of FLAVGYHKTHI [IDS_Y225_P228T], the phosphorylation enrichment is reported as 0.484.
Sequence RVVVPYEPPEV [TP53_Y220_S215R] has a phosphorylation enrichment of 0.505.
Work on ARSMEYLAEQK [MST1R_Y1198] yielded a phosphorylation enrichment of 0.493.
In the case of RRFSSYSQMEN [PKP1_Y120], the phosphorylation enrichment is reported as 0.89.
EKKDIYKAGEQ [CFH_Y1008_V1007I] was tested, and the phosphorylation enrichment was 0.424.
Sequence DNACQYMLTDR [MYH7_Y164_Y162C] has a phosphorylation enrichment of 0.612.
With SGGLDYGMVGG [TNRC6B_Y1382_M1380L] the phosphorylation enrichment was 0.973.
With LNYNEYFRDLN [HPRT1_Y198_D194N] the phosphorylation enrichment was 1.12.
With QRKRAYVEIEF [MAK16_Y282_YF] the phosphorylation enrichment was 0.594.
KRLWDYGMSSS [F8_Y1728_E1723K] showed a phosphorylation enrichment of 0.461.
VAFLFYKSIGP [ADGRL4_Y302_V300L_YF] was tested, and the phosphorylation enrichment was 0.664.
Work on TQNGVYSAANY [DDX5_Y535] yielded a phosphorylation enrichment of 1.85.
FFLGAYDRFLP [SLC22A5_Y486_V481F_YF] was tested, and the phosphorylation enrichment was 1.13.
RLGNQHVNVMN [SLC3A1_Y461_Y461H] gave a phosphorylation enrichment of 0.612.
Work on INMKKYCKKDF [NTN1_Y490_YF] yielded a phosphorylation enrichment of 0.522.
Sequence MSRYIYSTDYY [NTRK1_Y676_D674Y] has a phosphorylation enrichment of 11.4.
For KLPFLYDDPFS [GPX2_Y127_P126L_YF], the phosphorylation enrichment was 4.62.
In the case of KLPFPYDDPFS [GPX2_Y127_YF], the phosphorylation enrichment is reported as 0.773.
SQSPHYFRSGR [GPATCH8_Y1038] was tested, and the phosphorylation enrichment was 0.394.
